Experimental data taken from patent US20170298119A1.

Target: recombinant FcRn protein (Homo sapiens (Human)) (UniProt P55899)
Assay: BLI (Octet): antibody on anti-CH1 biosensors, recombinant FcRn at pH 6.0; fold change against wild type Motavizumab (p-1342)

Kd (fold increase): 9.3 fold | koff (fold decrease): 3.7 fold | kon (fold increase): 2.5 fold
Substance: LS (antibody)
